Laboratory results from patent US7163686.

How the values were obtained:
[1] = target: representative VHIII-encoded IgG2a Moab (moderate affinity clan VHIII, murine 7183-encoded antibody); assay: inhibition ELISA: SpA form in solution preincubated with the murine 7183-encoded IgG2a, then wells coated with tetmDomD′; human Fc fragments added
[2] = target: biotinylated-purified IgG Fc fragments (Jackson Labs); assay: inhibition ELISA: protein in solution incubated with biotinylated IgG Fc fragments, wells coated with SpA, streptavidin-AP

Substance	IC50 [1] [µM]	IC50 [2] [µM]
TetmDomD′ (four-domain concatamer of mutant SpA domain D′, L17D/I31A) (from UniProt P38507 93-153; P38507 93-153; P38507 93-153; P38507 93-153)	5000	
SpA domain D (wildtype), monomer (from UniProt P38507 93-153)	10000	200
Staphylococcal protein A (SpA), native, recombinant rSpA (Repligen) (from UniProt P38507 37-437)	2	0.4
